Literature values in US20230332104A1, “ZBTB32 INHIBITORS AND USES THEREOF” (NOVARTIS AG, priority 2020, published 2023).

Tested on: rodent and cynomolgus monkey TGF-β

B1: XOMA 089: fully human monoclonal antibody that specifically binds and neutralizes TGF-beta 1 and 2 ligands (antibody, V domains shown)
VH: QVQLVQSGAEVKKPGSSVKVSCKASGGTFSSYAISWVRQAPGQGLEWMGGIIPIFGTANYAQKFQGRVTITADESTSTAYMELSSLRSEDTAVYYCARGLWEVRALPSVYWGQGTLVTVSS
VL: SYELTQPPSVSVAPGQTARITCGANDIGSKSVHWYQQKAGQAPVLVVSEDIIRPSGIPERISGSNSGNTATLTISRVEAGDEADYYCQVWDRDSDQYVFGTGTKVTVLG
cross-reactivity with rodent and cynomolgus monkey TGF-β: cross-reacts
